Consider five molecules from patent publication US20190353661A1 (VANDERBILT UNIVERSITY, published 2019).

Test in all cases: Phadia diagnostics and/or Western blot
(In western blotting, separated proteins are transferred to a membrane and probed.)

In assay [1] the target is T1, Aspergillus fumigatus allergen Asp f 1 (Aspergillus fumigatus, UniProt P67875 28-176).
T1 sequence: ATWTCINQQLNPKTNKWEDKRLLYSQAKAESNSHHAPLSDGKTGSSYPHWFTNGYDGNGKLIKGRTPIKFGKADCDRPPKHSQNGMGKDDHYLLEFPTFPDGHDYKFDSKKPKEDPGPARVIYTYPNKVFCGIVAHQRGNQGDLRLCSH

In assay [2] the target is T2, Dust mite allergen Der p 1 (dust mite (Dermatophagoides …, UniProt P08176 99-320)).
T2 sequence (looked up): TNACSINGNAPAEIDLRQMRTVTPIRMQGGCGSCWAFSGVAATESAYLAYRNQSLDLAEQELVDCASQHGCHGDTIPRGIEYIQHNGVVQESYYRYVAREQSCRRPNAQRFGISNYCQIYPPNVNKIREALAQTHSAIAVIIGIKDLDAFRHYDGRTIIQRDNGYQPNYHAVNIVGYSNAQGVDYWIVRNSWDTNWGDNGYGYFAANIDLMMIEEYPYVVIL

For the next assay, the target named is T3, Peanut allergen Ara h 6 (peanut, UniProt Q647G9 22-145).
T3 sequence (looked up): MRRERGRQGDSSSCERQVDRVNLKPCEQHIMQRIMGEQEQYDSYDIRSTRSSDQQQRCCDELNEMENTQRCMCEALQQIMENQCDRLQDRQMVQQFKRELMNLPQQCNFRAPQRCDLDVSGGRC

The target in a further assay is T4, Cat allergen Fel d 1 (cat, UniProt P30438 23-92; P30440 18-109).
T4 sequence (looked up) 1: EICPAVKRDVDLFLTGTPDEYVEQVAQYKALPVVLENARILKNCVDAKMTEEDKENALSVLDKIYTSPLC
T4 sequence (looked up) 2: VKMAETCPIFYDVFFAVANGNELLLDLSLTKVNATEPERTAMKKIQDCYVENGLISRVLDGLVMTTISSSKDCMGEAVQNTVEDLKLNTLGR

Residue numbers refer to the chain shown, from its start.

B1: Human IgE mAb 14H4 (antibody, V domains shown)
VH: EVQLVQSGAEVKRAGESLKISCKGSGYPFATYWVGWVRQMPGKGLEWMTIIYPEDSDTRYSPSFQDHVTISADKSLSTAYLQWSSLKASDTAMYYCARVSRYYYDSRSYYPDAFDIWGQGTMVTVSS
VL: SYELTQPPSVSVSPGQTASITCSGDKLGDKYVCWYQQKPGRSPVLVVHQDTKRPSGIPERFSGSNSGDTATLTISGTQAMDEADYYCQAWDSTIGVFGPGTRVTVL
notes: Natural human IgE from a hybridoma
On to B1, for which, in assay [1], the binding result is on record as “binds”.

B2: Human IgE mAb 1C14 (antibody, V domains shown)
VH: QVQLQESGPGLVKPSQTLSLTCTVSGGSISSGGFFWGWIRQHPGRDLEWIGYIFYTGSTNYNPSLKNRVTLSVDTSKNHFSLNLTSVTVADTAVYYCARQGGVRGNYYFMDVWGKGTTVTVSS
VL: DIQMTQSPSSLSASVGDRVTITCRASQSISNYLNWYQQKPGKAPKLLIYAASRLQSGVPSRFSGSGSGTELTLTISSLQPEDFATYFCQQSYNTPYSFGQGTKVEIK
notes: as for B1
B2: the binding result in assay [2] was “binds”.

B3: Human IgE mAb 1A8 (antibody, V domains shown)
VH: QLQLQESGPGLVKPSETLSLTCSVSDDSISTPSYFWTWIRQPPGKGLEWIASIYYTGTTYYNPSLKSRVTLSVDTPKRQFFLRLSSVTAADTAVYYCARYLDYVWLRAFDVWGQGAMVTVSS
VL: EIVLTQSPATLSLSPGERATLSCRASPSVGRFLAWYQQKPGQAPRLLIYDASQRATDIPARFSASGSGTDFTLTIDSLEPEDFAIYYCQHRSNWPVTFGGGTRVEIK
notes: as for B1
Consider B3, for which, in the assay with Peanut allergen Ara h 6, the binding result is on record as “binds”.

B4: Human IgE mAb 8F3 (antibody, V domains shown)
VH: QLQLQESGPGLVKPSETLSLTCTVSDASIDTPSYFWSWIRQPPGKGLEWIGSIYYTGNKYSNPSLKSRVTMSVDTPKRQFSLRLSSVTAADTAVYYCARYVDYVWLRAFDIWGQGTRVTVSS
VL: B3 VL with V29A, K39R, Q53K, I58T, A64G, T72N, D76A, I85V, V96L, R103K
notes: as for B1
Take B4: the binding result with Peanut allergen Ara h 6 is recorded as “binds”.

B5: Human IgE mAb 1B7 (antibody, V domains shown)
VH: EFQLQESGPGLVKPSETLSLNCSVSGGSISNNYWNWIRQPPGKGLEWIGYISYSGRTHYNPSLKSRVSISLHTSKNHFSLKLTSVAAADTAMYYCARESTYSYKLGDAFDIWGQGTMVTVSA
VL: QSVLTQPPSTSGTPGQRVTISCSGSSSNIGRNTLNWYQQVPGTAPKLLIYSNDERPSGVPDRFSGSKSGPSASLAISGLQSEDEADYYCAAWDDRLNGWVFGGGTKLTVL
For the molecule B5, the binding result with Cat allergen Fel d 1 is listed as “binds”.
